Measured values: patent publication US20250136720A1 (Boehringer Ingelheim, published 2025)
Numbering of substitutions follows the chain as printed. Names may count otherwise. One block for each binder: values may come before it.

Legend:
[1] = target: T1, Murine Fibroblast Activation Protein (FAP) on B16 cells (mouse, UniProt P97321 1-761); test: flow cytometry, scFv-Fc on B16-FAP cells
T1 construct: B16 cells transduced with murine FAP cDNA; also called B16-FAP

[2] = target: T2, Human Fibroblast Activation Protein (FAP) on HT1080 cells (human, UniProt Q12884 1-760); test: flow cytometry, scFv-Fc on HT1080-FAP cells
T2 construct: HT1080 cells transduced with human FAP cDNA; also called HT1080-FAP; FAP+ HT1080

[3] = target: T3, Human CD137 on Jurkat cells (human, UniProt Q07011 24-255); test: flow cytometry, Jurkat cells;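 note: binding of antibody-containing supernatants to NF-kB-Luc2/4-1BB Jurkat cells, detected by flow cytometry with a PE-labelled anti-human IgG-Fc secondary antibody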
T3 construct: whole, on cells; also called full-length human CD137-expressing Jurkat cell line; NF-kB-Luc2/4-1BB Jurkat
Description: Briefly, HTP supernatants containing recombinant IgG1 (KO) antibodies, were assayed by flow cytometry for binding to the NF-kB-Luc2/4-1BB Jurkat cell line. […] The cells were washed x3 with staining buffer. A Goat F(ab′)2 anti-human IgG-Fc PE secondary antibody was added to the cells and the plate was incubated for 30 min at 4° C. The cells were wash ×3 with staining buffer.

T1 sequence (P97321 other isoform, or with tags, fused parts or gaps): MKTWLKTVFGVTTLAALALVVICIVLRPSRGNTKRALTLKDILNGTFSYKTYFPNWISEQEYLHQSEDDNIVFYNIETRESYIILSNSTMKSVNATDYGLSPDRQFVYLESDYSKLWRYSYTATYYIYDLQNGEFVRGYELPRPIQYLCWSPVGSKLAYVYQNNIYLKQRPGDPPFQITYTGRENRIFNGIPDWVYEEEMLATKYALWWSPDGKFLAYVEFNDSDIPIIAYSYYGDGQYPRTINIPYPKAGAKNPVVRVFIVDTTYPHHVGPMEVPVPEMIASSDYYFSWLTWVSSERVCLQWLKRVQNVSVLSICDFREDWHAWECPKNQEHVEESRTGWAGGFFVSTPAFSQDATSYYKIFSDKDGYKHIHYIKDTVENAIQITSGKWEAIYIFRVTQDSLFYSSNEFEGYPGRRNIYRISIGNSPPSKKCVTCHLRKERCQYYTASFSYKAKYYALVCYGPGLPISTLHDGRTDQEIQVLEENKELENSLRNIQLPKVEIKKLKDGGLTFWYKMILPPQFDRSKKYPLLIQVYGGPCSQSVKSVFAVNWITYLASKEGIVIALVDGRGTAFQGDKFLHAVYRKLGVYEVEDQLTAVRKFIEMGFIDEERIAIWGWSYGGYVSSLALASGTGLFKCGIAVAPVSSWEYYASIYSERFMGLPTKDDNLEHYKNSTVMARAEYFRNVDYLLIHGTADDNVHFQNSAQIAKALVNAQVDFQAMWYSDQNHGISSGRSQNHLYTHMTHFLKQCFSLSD

B1: FAP.84.B8 (Fc fusion)
VH: DVQLVESGGSVVRPGESLRLSCAASGFPFSSYPMTWVRQAPGEGLEWVSSIRGSGDRIHYADSVKGRFTISKDSSNNTLYLQMNSLRAEDTAVYYCATGWNFFDYWGLGTLVTVSS
VL: EIVLTQSPGTLSLSPGERATLSCRASQTVATYLAWYQQKPGQAPRLLIYAAISRATGIPDRFSGSGSGTDFTLTITRLEPEDSAVYYCQQYKDWPPLTFGGGTKVEIK
notes: Tested as scFv-Fc; orientation, linker and Fc of this construct not specified
MFI [1]: 1490 MFI
MFI [2]: 24300 MFI

B3: FAP.84.B7 (Fc fusion)
VH: DVQLVESGGGVVRPGESLRLSCAASGFIFRNYAMTWVRQAPGEGLEWVSTIRSSGSGRTDTYYADSVKGRFTISRDSSNNTLYLQMNSLRAEDTAVYYCAKSGTFWDTFFDYWGLGTLVTVSS
VL: EIVLTQNPGTLNLSPGERATLTCRASQSAGRNLAWYQQKPGQTPRLLIYDVNTRATGIPDRFSGSGSGTEFNLTISSLQNEDFAVYYCQQYNNWPPLTFGGGTKVEIK
notes: as for B1
MFI [1]: 1610 MFI
MFI [2]: 24000 MFI

B4: CD137 #B27 (antibody, human IgG1, V domains shown)
VH: QVQLQQSGAELVRPGASVKISCKAFGYTFTNHHINWVKQRPGQGLDWIGYINPYNDYSGYNQKFKGRATLTVDKSSNTAYMELSSLTSEDSAVYYCATPGTWEGYYFDYWGQGTTLTVSS
VL: DVVMTQTPLSLPVSLGDQASISCRSSQSLVHSNGNTYLEWYLQKPGQSPKVLIYMVSNRFSGVPDRFSGSGSGTDFTLKISRVEAEDLGVYYCFQGSHIPLTFGAGTKLELK
notes: human IgG1 KO (L234A/L235A)/kappa chimeric IgG
binding result [3]: binds

B5: CD137 #B4 (antibody, human IgG1, V domains shown)
VH: DVQLQESGPGLVKPSQSLSLTCTVTGYSITSDYAWNWIRQFPGNRLEWMGYISYSGSTSYNPSLKSRISITRDTSKNQFFLQLNSVTTEDTATYFCARWGYVLDYWGQGTSVTVSS
VL: DIVMTQSHKFMSTSEGDRVSITCKASQDVSTAVAWYQQKPGQSPKLLIYWASTRHTGVPDRFRGSGSGTDYTLTISSVQAEDLALYFCQQHYFTPYTFGGGTKLEIK
notes: as for B4
binding result [3]: binds

B7: FAP.84.C11 (Fc fusion)
VH: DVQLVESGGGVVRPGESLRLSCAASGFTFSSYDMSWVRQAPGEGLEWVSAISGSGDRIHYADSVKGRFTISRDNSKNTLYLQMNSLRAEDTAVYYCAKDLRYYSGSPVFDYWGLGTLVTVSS
VL: EIVLTQSPGTLSLSPGERAILSCRASQTVGSRLAWYQQKPGQAPRLLIYAASSRATGIPDRFSGSGSGTEFTLTISSLQSEDFAVYYCQQYYDWPPLTFGGGTKVEIK
notes: as for B1
MFI [1]: 1430 MFI
MFI [2]: 27000 MFI

B8: FAP.84.A11 (Fc fusion)
VH: DVQLVESGGGLVQPGGSLRLSCAASGFSMSNFAMTWVRQAPGEGLEWVSGIRGSGTTYYADSVKGRFTVSRDNSKNTLYLQMNSLRAEDTAIYYCAKTWGTEYFDYWGLGTLVTVSS
VL: EIVLTQSPGTLSLSPGERATLSCRASQPINNYLAWYQQKPGQAPRLLIFSASNRATGIPDRFSGSGSGTEFTLTISSLEPEDFAVYYCQQYYDWPPYTFGGGTKVEIK
notes: as for B1
MFI [1]: 1410 MFI
MFI [2]: 27300 MFI

B11: FAP.84.B2 (Fc fusion)
VH: DVQLVESGGGVVRPGESLRLSCAASGFSFSSYAMNWVRQAPGKGLEWVSAISGSGGGTFYADSVKGRFTISRDNSKNTLYLQMNSLRAEDTAIYYCAKDPFGYGFFDSWGLGTLVTVSS
VL: EIVMTQSPATLSVSPGDRATLSCRASQTVGSKLAWYQQKPGQAPRLLIYAASSRATGIPDRFSGSGSGTDFTLTISSLEPEDFAVYYCQQYYNWPPAFGGGTKVEIK
notes: as for B1
MFI [1]: 2260 MFI
MFI [2]: 17300 MFI

B13: CD137 #A49 (antibody, human IgG1, V domains shown)
VH: QVQLQESGPGLVKPSETLSLTCTVSGGSISSYYWSWIRQPPGKGLEWIGYIYYSGSTNYNPSLKSRVTISVDTSKNQFSLKLSSVTAADTAVYYCARDQSGGGSFQHWGQGTLVTVSS
VL: EIVMTQSPLSLPVTPGEPASISCRSSQSLLYSNGYNHLDWYLQKPGQSPQLLIYLGSNRASGVPDRFSGSGSGTDFTLKISRVEAEDVGVYYCMQALQTPPTFGQGTKLEIK
notes: human IgG1 KO (L234A/L235A)/kappa IgG; also called CD137 #7; A49 Parent
binding result [3]: binds

B16: CD137 #B2 (antibody, human IgG1, V domains shown)
VH: QVQLQQPGAELVKPGASVKLSCKASGYTFTNFWINWVKQRPGQGLEWIGNIYPGNTGTNYNERFKTKATLTVDISSSTAYMRLSSLTSEDSAVYYCARGQLGLDYWGQGTTLTVSS
VL: DILLTQSPAILSVSPGERVSFSCRASQIIGTTIQWYQQRTNGSPRLLIKYASESLSGIPSRFSGSGSGTDFTLSINNVESEDIADYYCQQSHSWPFTFGSGTKLEIK
notes: as for B4
binding result [3]: binds

B17: FAP.63.G3 (Fc fusion)
VH: DVQLVESGGGVVRPGESLTLSCAASGFTFSNYDMGWVRQAPGEGLEWVSGIRGRGGSTYYADSVKGRFTISRDSSKNTLYLQMNSLRAEDTAVYYCAKENNRHSFFEYWGLGTLVTVSS
VL: EIVLTQSPGTLSLSPGERATLSCRASQSVGHYLAWYQQKPGQAPRLLIYDASNRAIDIPDRFSGSGSGTEFTLTISRLEPEDFAVYYCQQYYNNWPPLTFGGGTKVEIK
notes: Tested as scFv-Fc; orientation, linker and Fc not specified; also called FAP.63.C3; FAP 63.C3
MFI [1]: 1410 MFI
MFI [2]: 72800 MFI

B19: CD137 #A27 (antibody, human IgG1, V domains shown)
VH: QVQLQQSGAELTRPGASVKLSCKASGYTFTNYWIQWIKQRPGQGLEWIGTIYPENGDTRYTQKFKGKATLTADKSSSTAYMQLSSLASEDSAVYYCARGLLEGAHYWGQGTTLTVSS
VL: DILLTQSPAILSVSPGERVSFSCRASQSIGASIHWYQQRTNGSPRLLIKFSSESISGIPSRFSGSGSGTDFTLTINSVESEDIADYYCQQTNSWPTAFGGGTKLEMK
notes: as for B4
binding result [3]: binds

B21: CD137 #B20 (antibody, human IgG1, V domains shown)
VH: EVKLVESEGGLVQPGSSMKLSCTASGFTFSDFYMAWVRQVPEKGLEWVANINYDGSSTYYLDSLKSRFIISRDNARNILYLQMSSLKSEDTATYYCAREGDEGWYFDVWGAGTTVTVSS
VL: DIVMTQSHKFMSTSVGDRVSITCKASQDVSTAVAWYQQKPGQSPKLLIYSASYRYTGVPDRFTGSGSGTDFTFTISSVQAEDLAVYYCQQHYSNPWTFGGGTKLEIK
notes: as for B4
binding result [3]: binds

B22: CD137 #B21 (antibody, human IgG1, V domains shown)
VH: B21 VH
VL: B21 VL
notes: human IgG1 KO (L234A/L235A)/kappa chimeric IgG; also called CD137 #1; B21 parent
binding result [3]: binds

B23: CD137 #A42 (antibody, V domains shown)
VH: QVQLQQSGPGLVKPSQTLSLTCAISGDSVSSNSAAWNWIRQSPSRGLEWLGRTYYRSNWYNDYAVSVESRITIKPDTSKNQFSLQLNSVTPEDTAVYYCARMDSGTYLDAFDIWGQGTMVTVSS
VL: EIVMTQSPATLSVSPGERATLSCRASQSVGRNLAWYQQKPGQTPRLLIYGASTRATGIPAIFSGSGSGTEFTLTISSLQSEDFAVYYCQQYNYWPPFTFAQGTKLEIK
notes: as for B4
binding result [3]: binds

Continued, values first:

MFI [1]: 1300 MFI
MFI [2]: 25400 MFI
B2: FAP.84.A9 (Fc fusion)
VH: B1 VH with S10G, E16G, G53P, S54I, K72R
VL: B1 VL with S22T, S63I, T76N, S83F
notes: as for B1

MFI [1]: 1840 MFI
MFI [2]: 35600 MFI
B6: FAP.65.F1 (Fc fusion)
VH: DVQLVESGGGLVHPGGSLRLSCAASTFTFANYIMSWVRQAPGKGLEWVSGITGSSTNTYYTDSVKGRFTISRDNSKNTLYLEMNSLRAEDTAVYYCAKHQLYPYYAMDVWGQGTTVTVSS
VL: B7 VL with T10S, I20T, T28P, V29I, G30D, R32Y, A50G, S53T, G57D, L97V
notes: as for B1

binding result [3]: binds
B9: CD137 #A26 (antibody, human IgG1, V domains shown)
VH: EVQLQESGPSLVKPSQTLSLTCSVTGDSITSGYWNWNRKFPGNKFEYMGYISYSDSAYYNPSLKSRISITRDTSKNQYYLQLNSVTTEDTATYYCTRWGIPFAFWGQGTLVTVSA
VL: DIKMTQSPSSMYASLGERVTITCKASQDIDSYLYWFQQKPGKSPETLIYHANRLVDGVPSRFSGSGSGQDYSLTISSLEYEDMGIYYCLQYDEFPYTFGGGTKLEIK
notes: as for B4

binding result [3]: binds
B10: CD137 #A39 (antibody, human IgG1, V domains shown)
VH: QVQLQQSGAELMKPGSSVKLSCKAPGYKFTDYWIEWVKQRPGHGLDWIGNILPGTINTNSNENFKGKATFTADTSSNTAYMQLSSLTSEDSAVYYCARRSLEYYFDYWGQGTTLTVSS
VL: DIVVTQSPASLAVSLGQRATISCRASQSVSTSRYSYMHWYQQKPGQPPRLLINYASNLESGVPARFSGSGSGTDFTLNIHPVEEEDTATYYCQHTWEIPWTFGGGTKLEIK
notes: as for B4

MFI [1]: 3360 MFI
MFI [2]: 49100 MFI
B12: FAP.63.D7 (Fc fusion)
VH: DVQLVESGGGVVRPGESLRLSCAASGFTFSSYAMSWVRQTPGEGLEWVSFISSGGAYTHYTDSVKGRFTISRDNSKNTLYLQMNSLRAEDTAVYYCAKEKEIWNAFFDYWGLGTLVTVSS
VL: EIVLTQSPATLNLSPGDRATLTCRASQTVGSKLAWYQQTSGQAPRLLIYDASSRATGIPDRFSGSGSGTEFTLTISSLEPEDFAVYVCQQYYDWPPLTFGGGTKVEIK
notes: as for B1

binding result [3]: binds
B14: CD137 #B1 (antibody, human IgG1, V domains shown)
VH: B16 VH with G44A, T56D, G57N, E62G, R63N, I74R, R82H, E89K
VL: B16 VL with I28N, Q34H, Q37H, Y50F, L55I, N77S, I83F, H92N
notes: as for B4

binding result [3]: binds
B15: CD137 #B13 (antibody, human IgG1, V domains shown)
VH: B16 VH with G44A, T56D, G57N, E62G, R63N, I74R, R82H, E89K
VL: B16 VL with I28N, Q34H, Q37H, Y50F, L55I, N77S, I83F, H92N
notes: as for B4

MFI [1]: 2830 MFI
MFI [2]: 75000 MFI
B18: FAP.63.H3 (Fc fusion)
VH: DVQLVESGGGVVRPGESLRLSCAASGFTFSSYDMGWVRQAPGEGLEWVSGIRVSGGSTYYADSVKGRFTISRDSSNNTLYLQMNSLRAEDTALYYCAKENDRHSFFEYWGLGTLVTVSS
VL: B17 VL with H31Y, N53D, I56T, D57A
notes: as for B1

binding result [3]: binds
B20: CD137 #B7 (antibody, human IgG1, V domains shown)
VH: EVQLQESGPSLVKPSQTLSLTCSVTGDSITSGYWNWIRKFPGNKLEFMGYITYSGSTYYNPSLKSRISITRDTSRNQFYLQVNSVTTEDTATYFCTRYYYYGSTYYAMDYWGQGTSVTVSS
VL: NIVLTQSPASLAVSLGQRATISCRVSESVDSYGNSFMHWFQQKPGQSPKLLIYLASNLESGVPARFSGSGSRTDFTLTIDPVEADDAATYYCQQNIEDPPTFGGGTKLEIK
notes: as for B4
